Assay results published in patent US20180134794A1 (Regeneron, published 2018).

Legend:
[1] = target: T1, human MET (c-Met, hepatocyte growth factor receptor), endogenous on human cell lines (human, UniProt P08581 25-1390); test: cell-based or functional assay
[2] = target: T1, human MET (c-Met, hepatocyte growth …); test: flow cytometry, Hs746t cells (endogenous MET), antibody 10 ug/ml
Method: (§1) After one additional wash with FACS buffer, samples were fixed with Cytofix (BD Biosciences, #554655), filtered with FACS buffer and run on an iQue flow cytometer (Intelicyte). Mean fluorescence intensity (MFI) data was determined using FlowJo software (FlowJo LLC).

[3] = target: T1, human MET (c-Met, hepatocyte growth …); test: flow cytometry, SNU-5 cells (endogenous MET), antibody 10 ug/ml
Method: as §1

[4] = target: T1, human MET (c-Met, hepatocyte growth …); test: flow cytometry, MDA-MB-231 cells (endogenous MET, low), antibody 10 ug/ml
Method: as §1

[5] = target: T1, human MET (c-Met, hepatocyte growth …); test: flow cytometry, EBC-1 cells (endogenous MET), antibody 10 ug/ml
Method: as §1

[6] = target: T1, human MET (c-Met, hepatocyte growth …); test: flow cytometry, MKN-45 cells (endogenous MET), antibody 10 ug/ml
Method: as §1

[7] = target: T1, human MET (c-Met, hepatocyte growth …); test: cell-based or functional assay; remark: listed apart in the source
[8] = target: T1, human MET (c-Met, hepatocyte growth …); test: flow cytometry, U87MG cells (endogenous MET, low), antibody 10 ug/ml
Method: as §1

[9] = target: T1, human MET (c-Met, hepatocyte growth …); test: flow cytometry, A549 cells (endogenous MET), antibody 10 ug/ml
Method: as §1

[10] = target: T1, human MET (c-Met, hepatocyte growth …); test: flow cytometry, NCI-H1993 cells (endogenous MET), antibody 10 ug/ml; expressed as fold above unstained
Method: as §1

T1 sequence (P08581 25-1390 limits assumed, form in doubt): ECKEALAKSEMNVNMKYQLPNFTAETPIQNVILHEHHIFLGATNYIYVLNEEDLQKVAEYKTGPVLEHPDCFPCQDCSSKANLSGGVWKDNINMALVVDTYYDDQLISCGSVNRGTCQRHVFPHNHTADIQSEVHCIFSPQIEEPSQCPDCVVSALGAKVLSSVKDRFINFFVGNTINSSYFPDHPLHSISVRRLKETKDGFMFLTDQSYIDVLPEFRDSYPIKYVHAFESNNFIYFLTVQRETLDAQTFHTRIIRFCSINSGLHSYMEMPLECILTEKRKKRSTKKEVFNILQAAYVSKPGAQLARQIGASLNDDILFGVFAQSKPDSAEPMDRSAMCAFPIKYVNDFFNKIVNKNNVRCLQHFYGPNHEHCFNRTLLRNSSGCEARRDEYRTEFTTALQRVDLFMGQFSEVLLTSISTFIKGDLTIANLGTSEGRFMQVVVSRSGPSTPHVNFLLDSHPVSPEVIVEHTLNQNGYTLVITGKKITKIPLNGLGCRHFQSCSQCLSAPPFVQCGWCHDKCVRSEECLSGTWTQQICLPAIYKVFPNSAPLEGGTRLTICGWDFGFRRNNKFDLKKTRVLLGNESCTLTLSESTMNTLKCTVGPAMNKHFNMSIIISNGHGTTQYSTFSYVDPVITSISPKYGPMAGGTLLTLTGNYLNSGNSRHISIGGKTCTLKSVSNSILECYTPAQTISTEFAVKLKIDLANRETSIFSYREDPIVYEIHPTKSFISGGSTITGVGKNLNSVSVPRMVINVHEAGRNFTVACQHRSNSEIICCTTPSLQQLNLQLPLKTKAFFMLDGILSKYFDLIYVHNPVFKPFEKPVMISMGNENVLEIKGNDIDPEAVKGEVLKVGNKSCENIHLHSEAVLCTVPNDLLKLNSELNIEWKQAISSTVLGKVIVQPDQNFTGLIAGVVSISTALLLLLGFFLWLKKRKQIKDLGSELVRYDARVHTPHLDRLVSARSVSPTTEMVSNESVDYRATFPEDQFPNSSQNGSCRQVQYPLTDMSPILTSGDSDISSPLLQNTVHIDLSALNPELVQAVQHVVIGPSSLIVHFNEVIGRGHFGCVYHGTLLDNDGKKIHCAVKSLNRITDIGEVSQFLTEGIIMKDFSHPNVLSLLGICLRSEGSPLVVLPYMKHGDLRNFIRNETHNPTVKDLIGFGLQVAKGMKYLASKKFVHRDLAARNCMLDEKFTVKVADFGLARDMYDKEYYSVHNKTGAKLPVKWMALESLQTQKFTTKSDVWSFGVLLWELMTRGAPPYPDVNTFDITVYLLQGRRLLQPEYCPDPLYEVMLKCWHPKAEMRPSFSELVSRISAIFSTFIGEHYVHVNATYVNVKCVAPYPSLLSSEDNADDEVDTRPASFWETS

B1: H4H14639D (bispecific antibody, human IgG4, V domains shown)
VH 1: EVQLVESGGGLVQPGTSLRLSCAASGFTFDDYAMHWVRQAPGKGLEWVSGITWNSYNIDYADSVKGRFTISRDNAKNSLYLQMNSLRAEDTALYYCAKDDDYSNYVYFDYWGQGTLVTVSS
VH 2: EVQLVESGGGLVQPGGSLRLSCAASGFIVTTNYMTWLRQAPGKGLEWVSLIYSSGHTYYADSVKGRFTISRHNSKNTLYLQMDSLRAEDTAVYYCASAFAADVFDIWGQGTMVTVSS
VL: not shown
notes: human IgG4 Fc; also called No. 122; MET×MET bispecific antibody
Q: Which results are given for B1?
A: Relative MET Level, NCI-H596 cells, antibody 5 ug/ml, 18 hours, immunoblot [1]: 0.24 relative to control (hFc); FACS Binding (MFI Fold Above Isotype Control) [2]: 34 fold; FACS Binding (MFI Fold Above Isotype Control) [3]: 454 fold; FACS Binding (MFI Fold Above Isotype Control) [4]: 12 fold; FACS Binding (MFI Fold Above Isotype Control) [5]: 252 fold; FACS Binding (MFI Fold Above Isotype Control) [6]: 156 fold; % Inhibition (HEK293/SRE-Luc Blocking Activity, 1 h mAb pre-bind) [7]: 95%; EC50 (Ligand (HGF)-Independent HEK293/SRE-Luc Activation) [7]: 0.057 nM; Fold Response (Ligand (HGF)-Independent HEK293/SRE-Luc Activation) [7]: 1.8 fold; IC50 (HEK293/SRE-Luc Blocking Activity, 1 h mAb pre-bind) [7]: 0.024 nM; FACS Binding (MFI Fold Above Isotype Control) [8]: 18 fold; FACS Binding (MFI Fold Above Isotype Control) [9]: 10 fold; FACS Binding (MFI fold above unstained, per footnote) [10]: 188 fold
